From patent US20240051999A1 (JOHN INNES CENTRE, published 2024)

T1: UIM domain (C-terminal half with ubiquitin-interacting motifs) of Arabidopsis thaliana RPN10 (Arabidopsis thaliana, UniProt P55034 194-386)
T1 construct: domain: UIM domain
T1 sequence: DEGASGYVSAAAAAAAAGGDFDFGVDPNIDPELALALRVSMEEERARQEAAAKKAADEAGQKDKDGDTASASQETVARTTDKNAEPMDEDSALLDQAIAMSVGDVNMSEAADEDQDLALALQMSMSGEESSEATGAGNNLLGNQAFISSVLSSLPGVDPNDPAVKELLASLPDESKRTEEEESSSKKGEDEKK

T2: vWA (von Willebrand factor type A) domain of Arabidopsis thaliana RPN10 (Arabidopsis thaliana, UniProt P55034 1-193)
T2 construct: In Y2H it was a fusion to a GAL4 domain; also called AtvWA; AtRPN10 vWA domain
T2 sequence: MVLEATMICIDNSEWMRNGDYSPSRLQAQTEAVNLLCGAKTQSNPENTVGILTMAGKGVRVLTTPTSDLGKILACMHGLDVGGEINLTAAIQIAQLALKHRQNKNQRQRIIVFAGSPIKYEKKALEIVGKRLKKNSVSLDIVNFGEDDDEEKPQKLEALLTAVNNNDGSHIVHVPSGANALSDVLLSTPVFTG

B1: SAP05 (effector protein from AY-WB phytoplasma) (other)
chain: APNEEFVGDMRIVNVNLSNIDILKKHETFKKYFDFTLTGPRYNGNIAEFAMIWKIKNPPLNLLGVFFDDGTRDDEDDKYILEELKQIGNGAKNMYIFWQYEQK
notes: also called SAP05_AYWB; His-tagged SAP05
B2: ZnF (zinc-finger) domain of Arabidopsis thaliana SPL5 (other)
chain: SRLCQVDRCTVNLTEAKQYYRRHRVCEVHAKASAATVAGVRQRFCQQCSRFHELPEFDEAKRSCRRRLAGHNERRRKI
notes: domain: ZnF domain; Recombinant protein from E. coli; also called ZnF domain of AtSPL5

How the values were obtained:
[1] = biological target: T1, UIM domain (C-terminal half with …); assay: yeast two-hybrid
[2] = biological target: T2, vWA (von Willebrand factor type A) …; assay: His-tag pull-down (iMAC), His-sumo-tagged vWA as bait

Binder	binding result [1]	binding result [2]
B1	no binding	
B2		no binding
